# Source: patent publication US20040146968A1
# What was measured:
# [1] = biological target: sDR5 protein (extracellular domain of TRAIL receptor DR5, residues 1-130) (human); experiment: SPR, BIAcore 2000, sDR5 amine-coupled to chip, TRAIL 300-900 nM as analyte, 1:1 model, 25° C., apparent KD
# [2] = biological target: sDR5 protein (extracellular domain of TRAIL receptor DR5, residues 1-130) (human); experiment: cell-based or functional assay
# [3] = biological target: sDR5 protein (extracellular domain of TRAIL receptor DR5, residues 1-130) (human); experiment: SPR, BIAcore 2000, sDR5 immobilised
substance,measurement,setting,value
"wild-type TRAIL protein (human, residues 114-281) (ligand)",Kd,[1],15.9 nM
same,"cytotoxic activity on human SK-HEP-1 hepatoma cells (MTT viability, concentration giving 50% reduction of viability)",[2],50 ng/mL
TRAIL deletion mutant protein containing the deletion of residues 132-135 in the AA″ loop (ligand),fold change of apparent KD against wild-type TRAIL,[3],18 fold
same,Kd,[1],294 nM
same,"cytotoxic activity on human SK-HEP-1 hepatoma cells (MTT viability, concentration giving 50% cell death)",[2],> 1000 ng/mL
